Data: US20220220224A1 (Hoffmann-La Roche, published 2022)

What was measured:
[1] = molecular target: T1, recombinant biotinylated monomeric Fc fusion of human Folate Receptor 2 (hu FolR2 ECD-AcTev-Fcknob-Avi tag … (human, UniProt P0DOX5 223-449 = IgG part, biotin on the C-terminal Avi tag)); test: SPR Biacore, single injection on immobilized antigen-Fc
T1 construct: also called FolR2-Fc
Procedure: (§1) Binding of FolR1 binders as IgG or in the T-cell bispecific format to different recombinant folate receptors (human FolR1, 2 and 3, murine FolR1 and cynomolgus FolR1; all as Fc fusions) was assessed by surface plasmon resonance (SPR). All SPR experiments were performed on a Biacore T200 at 25° C. with HBS-EP as running buffer (0.01 M HEPES pH 7.4, 0.15 M NaCl, 3 mM EDTA, 0.005% Surfactant P20, Biacore, Freiburg/Germany).
(§2) First the anti-FolR1 IgGs were analyzed by single injections (Table 1) to characterize their crossreactivity (to human, murine and cyno FolR1) and specificity (to human FolR1, human FolR2, human FolR3). Recombinant biotinylated monomeric Fc fusions of human, cynomolgus and murine Folate Receptor 1 (FolR1-Fc) or human Folate Receptor 2 and 3 (FolR2-Fc, FolR3-Fc) were directly coupled on a SA chip using the standard coupling instruction (Biacore, Freiburg/Germany). The immobilization level was about 300-400 RU. The IgGs were injected for 60 seconds at a concentration of 500 nM.

[2] = molecular target: T2, recombinant biotinylated monomeric Fc fusion of human Folate Receptor 3 (hu FolR3 ECD-AcTev-Fcknob-Avi tag … (human, UniProt P0DOX5 223-449 = IgG part, biotin on the C-terminal Avi tag)); test: as above
T2 construct: also called FolR3-Fc
Procedure: as §1, §2

[3] = molecular target: T3, recombinant biotinylated monomeric Fc fusion of cynomolgus Folate Receptor 1 (cy FolR1 ECD-AcTev-Fcknob-Avi … (cynomolgus, UniProt P0DOX5 223-449 = IgG part, biotin on the C-terminal Avi tag)); test: SPR Biacore, avidity (bivalent, apparent KD), antigen-Fc on SA chip
T3 construct: also called cyFolR1-Fc; cyno FolR1
Procedure: (§3) The avidity of the interaction between the anti-FolR1 IgGs or T cell bispecifics and the recombinant folate receptors was determined as described below (Table 41).
(§4) Recombinant biotinylated monomeric Fc fusions of human, cynomolgus and murine Folate Receptor 1 (FolR1-Fc) were directly coupled on a SA chip using the standard coupling instruction (Biacore, Freiburg/Germany). The immobilization level was about 300. […] The dissociation was monitored for 240 or 600 seconds. Bulk refractive index differences were corrected for by subtracting the response obtained on reference flow cell immobilized with recombinant biotinylated murine IL2 receptor Fc fusion. The binding curves resulting from the bivalent binding of the IgG or T cell bispecifics were approximated to a 1:1 Langmuir binding (even though it is a 1:2 binding) and fitted with that model to get an apparent KD representing the avidity of the bivalent binding. The apparent avidity constants for the interactions were derived from the rate constants of the fitting using the Bia Evaluation software (GE Healthcare). For low affinity kinetics with association and dissociation phases too fast to be fitted by the 1:1 Langmuir binding model, the steady state analysis model was applied using the Bia Evaluation software (GE Healthcare). The steady state analysis gives the KD of the binding reaction at equilibrium.

[4] = molecular target: T4, recombinant biotinylated monomeric Fc fusion of human Folate Receptor 1 (huFolR1 ECD-AcTev-Fcknob-Avi tag … (human, UniProt P0DOX5 223-449 = IgG part, biotin on the C-terminal Avi tag)); test: as above
T4 construct: also called huFolR1-Fc; human FolR1-Fc
Procedure: as §3, §4

[5] = molecular target: T4, recombinant biotinylated monomeric Fc …; test: SPR Biacore, affinity (monovalent), antibody captured via anti-Fab
Procedure: The affinity of the interaction between the anti-FolR1 IgGs or the T cell bispecifics and the recombinant folate receptors was determined as described below (Table 42).
For affinity measurement, direct coupling of around 10000 resonance units (RU) of the anti-human Fab specific antibody (Fab capture kit, GE Healthcare) was performed on a CM5 chip at pH 5.0 using the standard amine coupling kit (GE Healthcare). Anti-FolR1 IgGs or T cell bispecifics were captured at 200 nM with a flow rate of 10 ul/min for 40 sec, the reference flow cell was left without capture. Dilution series (12.35 to 3000 nM) of human Folate Receptor 1 Fc fusion were passed on all flow cells at 30 μl/min for 240 sec to record the association phase. The dissociation phase was monitored for 300 s and triggered by switching from the sample solution to HBS-EP. The chip surface was regenerated after every cycle using a double injection of 60 sec 10 mM Glycine-HCl pH 1.5. Bulk refractive index differences were corrected for by subtracting the response obtained on the reference flow cell 1. The affinity constants for the interactions were derived from the rate constants by fitting to a 1:1 Langmuir binding using the Bia Evaluation software (GE Healthcare).

Row | Binder | binding result [1] | binding result [2] | Kd [3] [nM] | koff [3] [s⁻¹] | kon [3] [M⁻¹ s⁻¹] | Kd [4] [nM] | koff [4] [s⁻¹] | kon [4] [M⁻¹ s⁻¹] | Kd [5] [nM] | koff [5] [s⁻¹] | kon [5] [M⁻¹ s⁻¹]
1 | 15H7 IgG (antibody, V domains shown, human IgG1) VH: QVQLVQSGAEVKKPGASVKVSCKASGYTFTSYYMHWVRQAPGQGLEWMGIINPSGGSTSYAQKFQGRVTMTRDTSTSTVYMELSSLRSEDTAVYYCARNYYLFSTSFDYWGQGTLVTVSS VL: QAVVTQEPSLTVSPGGTVTLTCGSSTGAVTTSNYANWVQEKPGQAFRGLIGGTNKRAPGTPARFSGSLLGGKAALTLSGAQPEDEAEYYCALWYSNLWVFGGGTKLTVL | no binding (tested: 500 nM) | no binding (tested: 500 nM) | – | – | – | – | – | – | – | – | –
2 | 16D5 IgG variant S35H/wt (HC/LC) (antibody, V domains shown, IgG) VH: not shown VL: QAVVTQEPSLTVSPGGTVTLTCGSSTGAVTTSNYANWVQEKPGQAFRGLIGGTNKRAPGTPARFSGSLLGGKAALTLSGAQPEDEAEYYCALWYSNLWVFGGGTKLTVL | – | – | 55 | 0.0124 | 223000 | 40 | 0.00568 | 132000 | 1200 | 0.0113 | 8960
3 | 18D3 IgG (antibody, V domains shown, human IgG1) VH: QVQLVQSGAEVKKPGASVKVSCKASGYTFTSYYMHWVRQAPGQGLEWMGIINPSGGSTSYAQKFQGRVTMTRDTSTSTVYMELSSLRSEDTAVYYCARNYYTGGSSAFDYWGQGTLVTVS VL: QAVVTQEPSLTVSPGGTVTLTCGSSTGAVTTSNYANWVQEKPGQAFRGLIGGTNKRAPGTPARFSGSLLGGKAALTLSGAQPEDEAEYYCALWYSNLWVFGGGTKLTVL | no binding (tested: 500 nM) | no binding (tested: 500 nM) | – | – | – | – | – | – | – | – | –
4 | 16A3 IgG (antibody, V domains shown, human IgG1) VH: QVQLVQSGAEVKKPGASVKVSCKASGYTFTSYYMHWVRQAPGQGLEWMGIINPSGGSTSYAQKFQGRVTMTRDTSTSTVYMELSSLRSEDTAVYYCARNYYAGVTPFDYWGQGTLVTVSS VL: QAVVTQEPSLTVSPGGTVTLTCGSSTGAVTTSNYANWVQEKPGQAFRGLIGGTNKRAPGTPARFSGSLLGGKAALTLSGAQPEDEAEYYCALWYSNLWVFGGGTKLTVL | no binding (tested: 500 nM) | no binding (tested: 500 nM) | – | – | – | – | – | – | – | – | –
5 | 16D5 IgG variant S35H/S93A (HC/LC) (antibody, V domains shown, IgG) VH: not shown VL: QTVVTQEPSLTVSPGGTVTLTCGSSTGAVTTSNYANWVQQKPGQAPRGLIGGTNKRAPGTPARFSGSLLGGKAALTLSGVQPEDEAEYYCALWYANLWVFGGGTKLTVL | – | – | 110 | 0.0677 | 612000 | 90 | 0.022 | 243000 | 1300 | 0.0112 | 8430
6 | 16D5 IgG variant G49S/K53A (HC/LC) (antibody, V domains shown, IgG) VH: not shown VL: QTVVTQEPSLTVSPGGTVTLTCGSSTGAVTTSNYANWVQQKPGQAPRGLIGGTNARAPGTPARFSGSLLGGKAALTLSGVQPEDEAEYYCALWYSNLWVFGGGTKLTVL | – | – | 80 | 0.0328 | 393000 | 60 | 0.0115 | 190000 | 1900 | 0.0174 | 9190
7 | 16D5 IgG variant S35H/K53A (HC/LC) (antibody, V domains shown, IgG) VH: not shown VL: QTVVTQEPSLTVSPGGTVTLTCGSSTGAVTTSNYANWVQQKPGQAPRGLIGGTNARAPGTPARFSGSLLGGKAALTLSGVQPEDEAEYYCALWYSNLWVFGGGTKLTVL | – | – | 1100 | 0.0404 | 34700 | 1400 | 0.0291 | 21000 | – | – | –
8 | 16D5 IgG variant W96Y/wt (HC/LC) (antibody, V domains shown, IgG) VH: not shown VL: QAVVTQEPSLTVSPGGTVTLTCGSSTGAVTTSNYANWVQEKPGQAFRGLIGGTNKRAPGTPARFSGSLLGGKAALTLSGAQPEDEAEYYCALWYSNLWVFGGGTKLTVL | – | – | 10 | 0.00211 | 173000 | 20 | 0.00213 | 129000 | 550 | 0.00544 | 9950
9 | 21D1 IgG (antibody, V domains shown, human IgG1) VH: QVQLVQSGAEVKKPGASVKVSCKASGYTFTSYYMHWVRQAPGQGLEWMGIINPSGGSTSYAQKFQGRVTMTRDTSTSTVYMELSSLRSEDTAVYYCARNYYVGVSPFDYWGQGTLVTVSS VL: QAVVTQEPSLTVSPGGTVTLTCGSSTGAVTTSNYANWVQEKPGQAFRGLIGGTNKRAPGTPARFSGSLLGGKAALTLSGAQPEDEAEYYCALWYSNLWVFGGGTKLTVL | no binding (tested: 500 nM) | no binding (tested: 500 nM) | – | – | – | – | – | – | – | – | –
10 | 16D5 IgG variant R50S/K53A (HC/LC) (antibody, V domains shown, IgG) VH: not shown VL: QTVVTQEPSLTVSPGGTVTLTCGSSTGAVTTSNYANWVQQKPGQAPRGLIGGTNARAPGTPARFSGSLLGGKAALTLSGVQPEDEAEYYCALWYSNLWVFGGGTKLTVL | – | – | 80 | 0.0455 | 550000 | 60 | 0.0197 | 328000 | 1800 | 0.0245 | 13500
11 | 16D5 IgG variant R50S/S93A (HC/LC) (antibody, V domains shown, IgG) VH: not shown VL: QTVVTQEPSLTVSPGGTVTLTCGSSTGAVTTSNYANWVQQKPGQAPRGLIGGTNKRAPGTPARFSGSLLGGKAALTLSGVQPEDEAEYYCALWYANLWVFGGGTKLTVL | – | – | 20 | 0.0078 | 439000 | 30 | 0.00323 | 125000 | 780 | 0.0123 | 15700
12 | 16D5 IgG variant G49S/S93A (HC/LC) (antibody, V domains shown, IgG) VH: not shown VL: QTVVTQEPSLTVSPGGTVTLTCGSSTGAVTTSNYANWVQQKPGQAPRGLIGGTNKRAPGTPARFSGSLLGGKAALTLSGVQPEDEAEYYCALWYANLWVFGGGTKLTVL | – | – | 20 | 0.00622 | 358000 | 20 | 0.00306 | 152000 | 760 | 0.00799 | 10500
13 | 16D5 IgG variant W96Y/S93A (HC/LC) (antibody, V domains shown, IgG) VH: not shown VL: QTVVTQEPSLTVSPGGTVTLTCGSSTGAVTTSNYANWVQQKPGQAPRGLIGGTNKRAPGTPARFSGSLLGGKAALTLSGVQPEDEAEYYCALWYANLWVFGGGTKLTVL | – | – | 30 | 0.0174 | 625000 | 30 | 0.0189 | 655000 | 420 | 0.0172 | 40500
